{
  "source": "patent US20040175364A1",
  "molecular_target": "Adenovirus 5 receptor (cell surface fiber receptor on HeLa cells)",
  "experiment": "cell-based or functional assay",
  "data": [
    {"substance": "Adenovirus 5 fiber protein (from UniProt P11818 1-581) (ligand)", "values": [
      {"measurement": "percentage of adenoviral transduction of HeLa cells by Av1LacZ4 (β-galactosidase positive cells) after preincubation with competitor fiber", "value": "0.1 to 1", "unit": "pg/mL"}
    ]}
  ]
}
